Reference: the supplement of paper PMC12636428

Test system: Saccharomyces cerevisiae
Experiment: transcriptional activation domain activity (GFP:mCherry ratio, weighted mean of sorted bins, harmonized to initial dataset scale) (arbitrary fluorescence ratio units); higher = stronger transcriptional activation
Settings: beta-estradiol 1 µM; induction time 4 h
Method: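 53-aa protein tiles (fungal proteins plus yeast TF control tiles) fused C-terminally to a DBD-estrogen-binding domain-mCherry synthetic TF, integrated in S. cerevisiae (URA3 locus) with a GFP reporter. Cells were induced with 1 uM beta-estradiol for 4 h at 30 C, FACS-sorted into 8 bins by GFP:mCherry ratio and barcodes sequenced. Activity is the read-weighted mean bin fluorescence (GFP:mCherry), averaged over barcodes (median 12); tiles under 50 reads were discarded. New active-learning values were harmonized by linear fit onto the scale of the initial (Hummel et al.) dataset. The assay saturates at low and high signal.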

Row | Sequence | transcriptional activation domain activity
1 | LIVVLILAPHPSLFRMLLRHHLQTLQQPFYFVIHLLVTYTLTFCAFSSLIICA | 53700
2 | ATADRDGEREAQEVVATTVVHCHGLFGKTYISIIRAFHVLIVKHSLARLPKKI | 60700
3 | PAAGGFGATSTPAPAAGGFGGFGATAAAAKPAVGGFGGLGGGASAAPATTLTS | 23300
4 | ENAGNENAVDVENAGNENTAPEAKGKKNKGNAAANENAAGNAQAGEAGQVAAN | 47200
5 | DYLWADMDSFFPFVRLLPTPVQEIWDMTFDIALLPLMECPPPEEWTLFDTYAY | 52400
6 | RTTALGVWFLSIQFFWYALYGALYIWFFFMPWEKLSVLLAFDYFMRLLLCFMF | 45700
7 | DGCIFFALITFALMLRIATAFCMRGPIHAIFLPWSIVCYYYAGSHLLLNLRWY | 46300
8 | IRGKTLPKYFPRFHMWGHIDADIQLMSKGLITPVCIEMVYGMHPFVVYKLFMF | 62100
9 | MSWPFFYLSFSLFFPPLLLDRGLLLLCGFFFLFLYIFLPGILWHLEAWFFLLV | 59300
10 | MSSEKSSRASKTPTPTPAPPGDHRKRRRNRTTQSCLNCHASKRMCDRKRPACQ | 52300
11 | DEDDDDDDNDDADADDEPARRPKKSKSSQKSRSKKPAAKRAKVNGTTPAAAHS | 20000
12 | RDGMRQGTHSTKGRADVRGSTRKAAPQKGRGRARMGSLRAPHIRGGGIAFGPK | 24000
13 | EAATKVDAAADGTDEVADRIADLDVSTSSNSKKKKKNSKSKKKAAKEEPVRLR | 47300
14 | WLLQYMMLLGTLRRQSDKLVVKVGWYMANYLVPGIYVFQPRIVMKVLLLILRQ | 44500
15 | SRLCLVSVGECLLLLSLVWGLLLLISLYLVLFFLHCVCMSGLFLCDLFELFVT | 64800
16 | TDDAKAKRKKEKKEKKEKSRSKKSADEGSDNEDGTSEERSKKRKSKSKSKSRS | 30700
17 | EKKVKTPKSPKKEKKKEEPAAAPAAAAEEPAKEEAAAPAEAAVAPTEEPAKVE | 42200
18 | KCLRLAIHIPLYPLFRTALVLRVQPSNAPLIRSVKDFLIYYLHDLQRFFILSP | 70000
19 | RDSKTDVEAEVEAAEKDEKKGKKRKRAEVVAAEESAEARKGKSKKSSRKGKEV | 34100
20 | KLEYVSLGRIEIVACFDKYTMASKGIHMLLGCCFSKIKFVCLSQADYQAAVLL | 67100
21 | RAGGRGREKKKEAEGPKKRRRKGAGGGDGQRARRKDKGRRRGEIARTAEGRNG | 20500
22 | IGWFFPFWIVLLLPLDMASSLYEGCDMLCRRPFTWVSQSFLYIAWRTIYWTSF | 59000
23 | MSDAAAPAPAPVEEVKPAEAAPEVVPAPRPLRRSPRPRRLRPLRPPPPSAAAE | 28400
24 | LFHVDLDKMYLMMITLCITWIHACLNVYQIHLLSLLNQWNVISSCLGLLVIVL | 41900
25 | KPATTTASSAQPSTTASATPGGLFGGGAQSGSSTPAGGLFGAKPAAAPSPAPA | 44900
26 | RLHTLRMPISWPLLGLARRRLASLRTFAVWIKPRHSSLTAAERLAFTQFLAAH | 79000
27 | GSYCISLVNVLVAFGVVLLHASTSGLWHWNPPFRAPNSVVFIYLLSNIFLITV | 55000

Row | Sequence | transcriptional activation domain activity
28 | NDFEKLEFFNKYAKVNTNNDVNENNDLWNSYLQSMDDTTGKNSGNYQQVDNDD | 35700
29 | AGDTSDGESASTPAHSSHQSRKQQVRHRASVACASCRERRIRCVVPEGASECT | 27400
30 | YHALKVYRGLGLLLVNGVTGICLSICVIVVACFGHFHFSPYWVLQWAVMSRIV | 63500
31 | QKKKEAAARNKAKAAPAKEEAAVTPAKVVEKPAAAAAATPAKGGKKMTAALRL | 37600
32 | WSSYTGPILSPGFSDLDWAPDPSNTTSGNLFIDLWPTWLSWMPDSTVLFTPWG | 49900
33 | TPLLLFFWCLCWFLSRSWYVYCFCYLNDWYNKVMMLWNLFHHHRFLLLYTRGL | 35200
34 | MQASFIFLSFTSGVIHTYILYLDLVAYFLLSLGGFVLIIGFWRWGFFFSFFPF | 55400
35 | MVWGCAFFISSQFLFPWLLWVFPLSLLSLGLSHTLELDSVFSLLLIFFTIPLF | 34500
36 | MHKHFVVTLIMFFYFFFLFLLRGRCWNCTPLPTLIPSTASGVLLIVFLSYVVH | 26400
37 | CQWWKYLMERLLLLPPLVRVQIILLLFAFVIPKLHLHAHTLACQLVFSLNFLL | 51200
38 | KKDEEQTSSSTPSPPPQESAEKNEAKDEEKPAEQKAKKKPKKLQVRSAGTPAP | 7630
39 | MLFYFYFYFYFYAFSIFSFYVIFYFLYFFFLFRPGLLYLLLLFFSILFVLFLP | 64900
40 | EAVKKSAERRDSATKSTSPAPAKEEKKEEGKKPEKKEAKPDDKKGEEAGEDKG | 10800
41 | FSLGLRTPLDHLLLAFFVLCGLTRLARFNVTVAMLPKDATGKSQYFEGTPIPT | 73300
42 | YILSSLVTYKGIINHNDQSILILGIPKLHRLLMENVHVLHLLINSCITTLASC | 44000
43 | LTHEPSKPPRRVPYTTLLHTVPLLIILTVLSAVVCYVHILLLRVFVKPVVIGT | 46600
44 | GDESRIDTKFFFGCVGLSNVVFIWPVLVLFHYLGIERFGLPPSSRIWWLLLLN | 50100
45 | MGSLLLFMGIDEGSFLCGFFFSIFFLLLAFFTSYGCFCDKFFFLLYLLLLLRK | 44300
46 | FALFPEDPIILTIFGFFFSIPCFYYIVAKPQYISASRFVLLTYNLTCLYCYNL | 32600
47 | EEVKPVMAAETKPEEKKASEEAKPEEKSAETSTDKSSGVNRNAVAAAASAATS | 32400
48 | REFRVVEEEEEEEEEEEEEEEEEEEEDEEEGGLGGESVEEGGRRDKGKGVVKE | 20100
49 | MPRPKRPGAPEAKTRSRKGCWPCKARKVKCGEEKPACSNCSRQGVICDYSIRL | 34600
50 | MFLFVFSLVCIFYYCCYLLLLLLSSWLYSQQFVLFWSLTVHISCCPSFFLNES | 37400
51 | MASGILGLLVVNFVLLLICFIAYSSQIFVIWPWYGRTVSVELISLLLPFNILV | 42800
52 | SRGICVYPFLPFAFFLGVFFSLMEFVLLGMMMVLYLYMRTVTCMFDISICLLL | 48500
53 | NANADAAAGNANADAGMANAGNNAAAGNANQAKGKGKKKNKAKGKAAGAGAGA | 29500
54 | IKIIQLLGTRYLYFMIKELRGALLRGYQMHVLGYTVHAILASIDLNPACLKAC | 77200

Row | Sequence | transcriptional activation domain activity
55 | SRPSTAPKPAPNPSPETTVTSISTPSEKRKRGRKPKAKPVEVPVSQTSGADSL | 20600
56 | MKDSHTARSDAVVFAIAVGRPFFFAAVLLRLLATETLGSSIALGVIGLVFIYC | 42400
57 | NKKRETRKGESTKSNDEEEEEEEDDDDEKKQGQKKQSNGQSKKSNGSSKKEED | 48700
58 | VMSYLLCVALVFPVMIVLMLLGCVWFLIVLFFMLGVLIFIMCIGPLYVILKAP | 10200
59 | AGNGWLLVGWFILHHFVVVSGILVAMLCLSFWDLWGSPGSPLLSRPWVAACFA | 50500
60 | GKKRRRSSSSSSSSSGSSSSGSSSSSGSDSESDSSSDSSSSSSNSSRSSGSRS | 24900
61 | KRKACLVCDLICTLLLQGLVSNEELRIDYSHRRCDLWRRQRWIGFVTPLSILE | 36400
62 | MADAVAEGTAKLQLDEETGEMVSKGELKKRLQKRAKKAAQAKAKADAPAPSAA | < 6570
63 | LQSPLYGRHILVAQQLVYYGCVILFPWLFISCALMFKFRGSWLLLYGMIDLSL | 44100
64 | YILAVGLILRLISYLSRAKVRLMYHWSELWRNLLSLIRFLNTYSADLLSSSTP | 66700
65 | RAPRTSPHQHKPAPVPAAALARTSPHPRQHQHQHASRAPPAASPHPRQHQEHQ | 31300
66 | GVVWCGVIFGFVAFHILCLFDVFFSFFFFFFEFWFWFFGFVYLNGLGWVGVGW | 40100
67 | MYWNYPGFIWPLGFPWFFFFFFFRSGSLLPRPCPVDTVFHFQFFFFFFFFFFF | 51300
68 | NGIFILHHKWVIPTPFASHAFNPFDGFLQSLPYHLYVFMLPMHKWLYLGMFVF | 71400
69 | GCRKDQRARRRRSPALANRPEMKGVCLKTGITKPKKPNSGERKTARIRLSSGR | 38900
70 | FSFFHPLHFLPWLLYPSPLISLFFLSFFILFSFFVFFFSCPFFLSLFHIFFPV | 33000
71 | WSVLLCFAVSFFSFSFLSFWAVTALCYGFVFVFFILLCVLCCFSFAFSHVYLF | 49600
72 | RRSKHSSRSHRSRRHRDRSVSDENGTERRHKSERRHKHRHRSRSGGSRERRHT | 47200
73 | MLQLWRLCVDNLLMAFSNYFPLVLPHATRFYLFYFWLILRGLQLTRLFCVCFM | 85300
74 | QPQSPYQQAVLPYATIPNSNFQPSSFPVMAVMPPEVQFDGSFLNTLHPHTELP | 34400
75 | AAPAAADPTPKKRGRPPRVSGAAEVAAAPEPAAEQPKKGRGRKAAEPAPEPVV | 23100
76 | GLTLLCLRRILQLWAGSDQLSELVSYVPVHLRVLAMRDAAVFAPLSRKVLQAL | 57700
77 | TWILNIPWPQTHMVAVLSLAGFLYFLILDIYEYMCYSYLVLLGTMWFVDIMFF | 73600
78 | FFLRIAVEVLHIRIIWAIILVNVLFGFSYFMCAVLQCVPIPYIWKKYAANPPP | 43200
79 | HTQPNLVPWLRCFPADAISVELISHEYIIRILRPILPADWQRPLFYSHRIRMY | 28900
